US20230365693A1 (BIONTECH, published 2023)
Values joined by “and” are separate entries in the source; they are usually repeats but may differ in a detail not shown here. Equal entries are not always repeated.

How the values were obtained:
[1] = molecular target: T1, human PD-1, full-length, expressed on cells (human (Homo sapiens), UniProt Q15116 25-288); experiment: cell-based or functional assay
[2] = molecular target: T1, human PD-1, full-length, expressed on …; experiment: cell-based or functional assay; remark: listed apart in the source

T1 sequence (Q15116 25-288): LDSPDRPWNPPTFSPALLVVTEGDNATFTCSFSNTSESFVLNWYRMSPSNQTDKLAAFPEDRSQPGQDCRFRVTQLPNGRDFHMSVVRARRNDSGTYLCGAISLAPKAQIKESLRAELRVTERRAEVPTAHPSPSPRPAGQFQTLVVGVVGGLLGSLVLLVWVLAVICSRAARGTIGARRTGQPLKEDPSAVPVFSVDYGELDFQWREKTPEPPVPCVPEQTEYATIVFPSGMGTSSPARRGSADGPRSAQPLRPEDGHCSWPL

B1: IgG1-PD1 (antibody)
heavy: QVQLVESGGGLVQPGTSLRLSCSVSGFSLYSYNMGWVRQAPGKGLEYIGIISGGTIGHYASWAKGRFTISRDTSKTTLYLQMNSLTTEDTATYFCARAFYDDYDYNVWGPGTLVTVSSASTKGPSVFPLAPSSKSTSGGTAALGCLVKDYFPEPVTVSWNSGALTSGVHTFPAVLQSSGLYSLSSVVTVPSSSLGTQTYICNVNHKPSNTKVDKRVEPKSCDKTHTCPPCPAPEFERGPSVFLFPPKPKDTLMISRTPEVTCVVVDVSHEDPEVKFNWYVDGVEVHNAKTKPREEQYNSTYRVVSVLTVLHQDWLNGKEYKCKVSNKALPAPIEKTISKAKGQPREPQVYTLPPSREEMTKNQVSLTCLVKGFYPSDIAVEWESNGQPENNYKTTPPVLDSDGSFFLYSKLTVDKSRWQQGNVFSCSVMHEALHNHYTQKSLSLSPG
light: AIQLTQSPSSLSASVGGTVTITCQSSQSVYGNNQLSWYQQKPGQPPKLLIYQASKLETGVPSRFRGSGSGTQFTLTISSLQSEDFATYYCAGGYSSSSDTTFGGGTEVVVKRTVAAPSVFIFPPSDEQLKSGTASVVCLLNNFYPREAKVQWKVDNALQSGNSQESVTEQDSKDSTYSLSSTLTLSKADYEKHKVYACEVTHQGLSSPVTKSFNRGEC
- EC50 of PD-1/PD-L1 checkpoint blockade, bioluminescent cell-based reporter assay [1]: 0.165 µg/mL and 1.12 nM
- EC50 in the antigen-specific proliferation assay (CD8+ T-cell expansion index) [2]: 0.0124 µg/mL and 0.0837 nM
